# Measurements taken from patent US20180207276A1, “MODIFIED THERAPEUTIC AGENTS AND COMPOSITIONS THEREOF” (THE CALIFORNIA INSTITUTE FOR BIOMEDICAL RESEARCH, priority 2015, published 2018).
# Positions of bridges follow the written chain, without caps; N, C: chain ends. Non-standard residues stand in square brackets, D forms with d. Primed or numbered codes have the meaning given here. Chains are numbered I, II in the order given. No end group written: not given here. *: point of attachment. FA2″ = lipid moiety from Br-FA2: acetamide, two PEG2-propionic acid units, Lys and octadecanedioic acid; X1 = O=C(O)CCCCCCCCCCCCCCCCC(=O)N[C@@H](CCCCNC(=O)CCOCCOCCNC(=O)CCOCCOCCNC(=O)C*)C(=O)O; X2 = O=C(O)CCCCCCCCCCCCCCCCC(=O)N[C@@H](CCCCn1cc(COCCOCCOCCOCCOCCNC(=O)C*)nn1)C(=O)O; X3 = CCCCCCCCCCCCCCCCCC(=O)N[C@@H](CCCCNC(=O)CCOCCOCCOCCOCCOCCNC(=O)C*)C(=O)O; X4 = CCCCCCCCCCCCCC(=O)N[C@@H](CCCCNC(=O)CCOCCOCCOCCOCCOCCNC(=O)C*)C(=O)O; FA183 = acetamide-PEG5-Lys-octadecanedioic acid; ALK = (PEG)5-bromo-alkyne, S-alkylating Cys; FA182 = acetamide-PEG5-Lys-myristic acid; FA186 = acetamide-PEG5-Lys-stearic acid; pGlu = O=C1CC[C@@H](C(=O)O)N1; FA155 = not defined here; FA2 = not defined here
# Tests used:
# [1] = target: T1, LGR7 (Homo sapiens, UniProt Q9HBX9); assay: LGR7 CRE-Luc reporter gene assay (bioactivity of relaxin peptides); assay type: cell-based; details: HEK293T cells expressing LGR7 and CRE-Luc; for Activity, fold drop compared to relaxin: fold drop relative to relaxin; for EC50: 18 hours incubation, luciferase readout
# T1 construct: expressed in transfected cells; host or cells: HEK293T cells stably expressing recombinant LGR7, transduced with CRE-Luc lentivirus
# T1 sequence (Q9HBX9 1-757): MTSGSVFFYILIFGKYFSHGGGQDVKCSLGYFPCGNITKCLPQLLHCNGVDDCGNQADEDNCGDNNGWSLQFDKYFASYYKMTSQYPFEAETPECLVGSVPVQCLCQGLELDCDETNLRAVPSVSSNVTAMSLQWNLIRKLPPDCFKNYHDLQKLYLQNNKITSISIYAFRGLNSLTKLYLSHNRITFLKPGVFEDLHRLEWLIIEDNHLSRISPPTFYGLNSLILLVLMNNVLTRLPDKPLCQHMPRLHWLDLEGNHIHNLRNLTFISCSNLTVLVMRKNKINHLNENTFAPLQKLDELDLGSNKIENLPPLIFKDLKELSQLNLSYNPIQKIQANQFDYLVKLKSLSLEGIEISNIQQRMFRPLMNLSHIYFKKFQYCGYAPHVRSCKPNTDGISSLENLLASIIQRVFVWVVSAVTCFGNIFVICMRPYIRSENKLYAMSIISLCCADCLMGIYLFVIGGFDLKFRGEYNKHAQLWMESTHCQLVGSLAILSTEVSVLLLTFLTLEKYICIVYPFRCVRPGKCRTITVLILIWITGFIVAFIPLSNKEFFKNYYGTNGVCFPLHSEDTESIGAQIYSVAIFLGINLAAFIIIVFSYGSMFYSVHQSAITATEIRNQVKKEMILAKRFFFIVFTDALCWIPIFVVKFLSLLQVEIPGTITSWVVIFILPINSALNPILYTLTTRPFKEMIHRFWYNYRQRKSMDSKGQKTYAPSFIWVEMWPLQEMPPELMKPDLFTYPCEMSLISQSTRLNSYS
# Experimental: Relaxin 2 signals through leucine-rich repeat-containing GPCRs (i.e LGR7 (RFXR1)). The bioactivity of wild-type relaxin peptides was determined based on the stimulation of adenylate cyclase activity in HEK293T cells stably expressing recombinant LGR7. Stable LGR7 expressing cells were maintained in Dulbecco's modified Eagle's medium/F-12 media supplemented with 200 ng/ml Zeocin (Invitrogen). A cyclic AMP responsive element driven luciferase (CRE-Luc) reporter line was generated by lentiviral transduction of these LGR7 expressing HEK293T cells with CRE-Luc lentivirus (Qiagen) and selected with puromycine (2 μg/mL) for two weeks. A reporter gene assay was used to detect cAMP levels and LGR7 activation by relaxin.
# Assay detail: HEK293T cells expressing LGR7 and CRE-Luc are seeded at a density of 5×10^3 cells per well in 50 μL of Dulbecco's modified Eagle's medium/F-12 medium containing 10% FBS in 384-well solid bottom white plates. Cells are pre-incubated at 37° C. overnight. Different concentrations of relaxin peptides (from 0.01 nM to 1000 nM) were added in triplicate, incubated for 18 hours and luciferase activity was detected by adding […], of Bright Glo (Promega). Luminescence was recorded on Envision (Perkin Elmer). EC50 is calculated after non-linear curve fitting (see FIG. 2 for relaxin H2 dose response curve).
# [2] = Mouse in vivo PK study for half-life extension; parameters: species or system CD1 female mice; details: 0.3 mg/kg in NH4Ac buffer, plasma levels by cell-based reporter gene assay; for half-life: female, CD1, sc
# Experimental: Lipid conjugated relaxin or other therapeutic agents were dosed in mice using sc, po, iv dosing. Plasma levels of TA were determined by LGR7 activation at different time points (e.g., i.v. PK 5 min, 0.5h, 1h, 2h 4h, 8h, 24h, 48h).
# [3] = in vivo; details: female, Dahl salt sensitive (DSS), rat, plasma, sc, 0.3 mg/kg
# Experimental: To ensure accurate determination of active relaxins, plasma samples collected at intervals between 0-24 hrs were analyzed using the cell-based reporter gene assay.
# Bioanalysis: Serum samples were diluted (1:100) in 5 point serial dilutions (1:3) and measured RXFP1 luciferase reporter activity following assay protocol. Injected peptide were used as a standard to get standard curve and obtained parameters for Bottom, Top, EC50, Hill Slope. Obtained activity values (RLU) were selected (in the linear range of the standard curve) were used to calculate the concentrations in plasma (nmol/L) using equation from standard curve (Y=Bottom+(Top-Bottom)/(1+10̂((Log IC50−X)*Hill Slope))
# [4] = target: T2, LGR7 (relaxin 2 receptor), recombinant, stably expressed in HEK293T cells with a CRE-Luc reporter (UniProt Q9HBX9 1-757, limits assumed); assay: cell-based or functional assay
# T2 sequence (looked up): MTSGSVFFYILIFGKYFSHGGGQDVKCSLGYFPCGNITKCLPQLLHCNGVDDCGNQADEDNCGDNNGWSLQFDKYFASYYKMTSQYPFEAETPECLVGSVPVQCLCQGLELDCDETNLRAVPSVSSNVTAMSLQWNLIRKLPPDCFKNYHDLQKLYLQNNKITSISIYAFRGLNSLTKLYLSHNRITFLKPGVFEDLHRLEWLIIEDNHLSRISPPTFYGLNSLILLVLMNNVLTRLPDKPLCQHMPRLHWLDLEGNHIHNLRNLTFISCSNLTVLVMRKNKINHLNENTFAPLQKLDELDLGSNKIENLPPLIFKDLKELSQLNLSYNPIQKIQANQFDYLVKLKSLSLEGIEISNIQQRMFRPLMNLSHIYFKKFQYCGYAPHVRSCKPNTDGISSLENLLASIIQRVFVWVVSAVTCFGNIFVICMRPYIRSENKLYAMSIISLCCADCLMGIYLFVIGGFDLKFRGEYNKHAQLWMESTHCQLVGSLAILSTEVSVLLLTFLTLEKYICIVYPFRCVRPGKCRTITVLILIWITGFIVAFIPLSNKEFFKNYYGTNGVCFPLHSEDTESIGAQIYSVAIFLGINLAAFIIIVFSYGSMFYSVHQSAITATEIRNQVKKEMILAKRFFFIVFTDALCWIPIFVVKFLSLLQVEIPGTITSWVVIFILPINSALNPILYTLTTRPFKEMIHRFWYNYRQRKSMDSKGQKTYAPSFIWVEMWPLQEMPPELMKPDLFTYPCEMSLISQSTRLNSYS
Molecule,"Activity, fold drop compared to relaxin [1]",half-life [2],"Activity, fold drop compared to relaxin [4]","LGR7 EC50 (pM), CRE-Luc reporter in HEK293T cells expressing LGR7 [4]",also measured
CC[C@H](C)[C@@H]1NC(=O)[C@H](C)NC(=O)[C@H]([C@@H](C)CC)NC(=O)[C@H](CCC(N)=O)NC(=O)[C@H](C)NC(=O)[C@H](CCCNC(=N)N)NC(=O)[C@H](C(C)C)NC(=O)[C@H](CC(C)C)NC(=O)[C@H](CCC(=O)O)NC(=O)[C@H](CCCNC(=N)N)NC(=O)CNC(=O)[C@@H](NC(=O)[C@H](CC(C)C)NC(=O)[C@H](CCCCN)NC(=O)[C@@H](NC(=O)[C@@H](NC(=O)[C@H](CCC(=O)O)NC(=O)[C@H](CCC(=O)O)NC(=O)[C@H](CCSC)NC(=O)[C@H](Cc2c[nH]c3ccccc23)NC(=O)[C@H](CO)NC(=O)[C@H](C)N)C(C)C)[C@@H](C)CC)CSSC[C@@H]2NC(=O)[C@@H](NC(=O)[C@H](CCCCN)NC(=O)[C@H](CC(N)=O)NC(=O)[C@H](C)NC(=O)[C@H](CC(C)C)NC(=O)[C@H](C)NC(=O)[C@H](CO)NC(=O)[C@H](Cc3ccc(O)cc3)NC(=O)[C@H](CSCC(=O)NCCOCCOCCOCCOCCOCCOCCOCCOCCC(=O)NCCCC[C@H](NC(=O)CCCCCCCCCCCCCCCCC(=O)O)C(=O)O)NC(=O)[C@@H](N)CCC(N)=O)CSSC[C@H](NC(=O)CNC(=O)[C@H](C(C)C)NC(=O)[C@H](Cc3c[nH]cn3)NC2=O)C(=O)N[C@@H]([C@@H](C)O)C(=O)N[C@@H](CCCCN)C(=O)N[C@@H](CCCNC(=N)N)C(=O)N[C@@H](CO)C(=O)N[C@@H](CC(C)C)C(=O)N[C@@H](C)C(=O)N[C@@H](CCCNC(=N)N)C(=O)N[C@@H](Cc2ccccc2)C(=O)N[C@H](C(=O)O)CSSC[C@@H](C(=O)NCC(=O)N[C@@H](CCSC)C(=O)N[C@@H](CO)C(=O)N[C@H](C(=O)N[C@@H](Cc2c[nH]c3ccccc23)C(=O)N[C@@H](CO)C(=O)O)[C@@H](C)O)NC1=O [compound 8],8,9.5 h,,,
"I: ASWMEEVIKLCGRELVRAQIAICGMSTWS / II: QC(X2)YSALANKCCHVGCTKRSLARFC (disulfide I:11-II:11, I:23-II:24, II:10-II:15) [compound 3]",12,6 h,,,EC50 [1]: 210 pM
"I: ASWMEEVIKLCGRELVRAQIAICGMSTWS / II: QC(X3)YSALANKCCHVGCTKRSLARFC (disulfide I:11-II:11, I:23-II:24, II:10-II:15) [compound 9]",10,3.4 h,,,
"I: ASWMEEVIKLCGRELVRAQIAICGMSTWS / II: QC(X4)YSALANKCCHVGCTKRSLARFC (disulfide I:11-II:11, I:23-II:24, II:10-II:15) [compound 7]",2,8 h,,,
"I: ASWMEEVIKLCGRELVRAQIAICGMSTWS / II: QLYSALANKCCHC(X1)GCTKRSLARFC (disulfide I:11-II:11, I:23-II:24, II:10-II:15) [compound 2]",15,8 h,,,
"I: H-ASWMEEVIKLCGRELVRAQIAICGMSTWS / II: H-QC(X1)YSALANKCCHVGCTKRSLARFC (disulfide I:11-II:11, I:23-II:24, II:10-II:15) [compound 1]",12,8 h,,,EC50 [1]: 210 pM
"I: H-ASWMEEVIKLCGRELVRAQIAICGMSTWS / II: [pGlu]C(X1)YSALANKCCHVGCTKRSLARFC (disulfide I:11-II:11, I:23-II:24, II:10-II:15) [compound 5]",12,,,,half-life [3]: 16 h
Relaxin-B:D1A (chain 1 ASWMEEVIKLCGRELVRAQIAICGMSTWS; chain 2 QLYSALANKCCHVGCTKRSLARFC) [unconjugated relaxin analog with D1A substitution in the B chain],,,,,"Half-life (mouse, sc) [2]: 0.8 h"
Relaxin-wt [reference compound],,,,,"Half-life (mouse, sc) [2]: 0.7 h"
"Relaxin-B:D1A-A:Q1-L2C-FA2 (ligand, ends and bridges not checked) chain 1: ASWMEEVIKLCGRELVRAQIAICGMSTWS chain 2: QC(FA2″)YSALANKCCHVGCTKRSLARFC",,,12 fold,210 pM,
"Relaxin-B:D1A-A:Q1:V13C-FA2 (ligand, ends and bridges not checked) chain 1: ASWMEEVIKLCGRELVRAQIAICGMSTWS chain 2: QLYSALANKCCHC(FA2)GCTKRSLARFC",,,15 fold,250 pM,
"Relaxin-B:D1A-A:Q1-L2C-FA155 (ligand, ends and bridges not checked) chain 1: ASWMEEVIKLCGRELVRAQIAICGMSTWS chain 2: QC(FA155)YSALANKCCHVGCTKRSLARFC",,,12 fold,210 pM,
"Relaxin-B:D1A-A:Q1-L2C-FA183 (ligand, ends and bridges not checked) chain 1: ASWMEEVIKLCGRELVRAQIAICGMSTWS chain 2: QC(FA183)YSALANKCCHVGCTKRSLARFC",,,8 fold,174 pM,
"Relaxin-B:D1A-A:Q1-L2C-FA182 (ligand, ends and bridges not checked) chain 1: ASWMEEVIKLCGRELVRAQIAICGMSTWS chain 2: QC(FA182)YSALANKCCHVGCTKRSLARFC",,,2 fold,51 pM,
"Relaxin-B:D1A (ligand, ends and bridges not checked; cysteine pairing not given here) chain 1: ASWMEEVIKLCGRELVRAQIAICGMSTWS chain 2: QLYSALANKCCHVGCTKRSLARFC",,,1 fold,45 pM,
"Relaxin-B:D1A-A:Q1-L2C-ALK (ligand, ends and bridges not checked) chain 1: ASWMEEVIKLCGRELVRAQIAICGMSTWS chain 2: QC(ALK)YSALANKCCHVGCTKRSLARFC",,,1 fold,17 to 50 pM,
"Relaxin-wt (ligand, ends and bridges not checked; cysteine pairing not given here) chain 1: DSWMEEVIKLCGRELVRAQIAICGMSTWS chain 2: QLYSALANKCCHVGCTKRSLARFC",,,1 fold,~40 pM,
"Relaxin-B:D1A-A:pQ1-L2C-FA2 (ligand, pyroglutamate (pQ) at position 1; Cys 2 S-alkylated with FA2 (from Br-FA2, Example 6)) chain 1: ASWMEEVIKLCGRELVRAQIAICGMSTWS chain 2: XCYSALANKCCHVGCTKRSLARFC",,,12 fold,350 pM,
"Relaxin-B:D1A-A:Q1-L2C-FA186 (ligand, ends and bridges not checked) chain 1: ASWMEEVIKLCGRELVRAQIAICGMSTWS chain 2: QC(FA186)YSALANKCCHVGCTKRSLARFC",,,10 fold,235 pM,
